Experimental data as given in US20250163127A1.

target: CTLA-4 (Homo sapiens (Human)) (UniProt P16410); test: flow cytometry, transfected cells
Sequence (P16410 36-223): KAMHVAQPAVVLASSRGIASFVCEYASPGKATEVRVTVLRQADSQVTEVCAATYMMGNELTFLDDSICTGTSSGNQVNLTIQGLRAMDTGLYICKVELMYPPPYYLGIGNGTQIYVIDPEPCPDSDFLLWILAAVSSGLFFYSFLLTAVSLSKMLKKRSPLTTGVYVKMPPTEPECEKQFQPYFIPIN

| MFI [MFI] | Binder |
| --- | --- |
| 3300 | ICOSL ECD-Fc N52Q/N84Q/N119Q/N168Q (Fc fusion) DTQEKEVRAMVGSDVELSCACPEGSRFDLNDVYVYWQTSESKTVVTYHIPQQSSLENVDSRYRNRALMSPAGMLRGDFSLRLFQVTPQDEQKFHCLVLSQSLGFQEVLSVEVTLHVAAQFSVPVVSAPHSPSQDELTFTCTSINGYPRPNVYWINKTDNSLLDQALQQDTVFLNMRGLYDVVSVLRIARTPSVNIGCCIENVLLQQNLTVGSQTGNDIGERDKITENPVSTGEKNAAT |

target: human PD-1 (human) (UniProt Q15116); test: not given
Sequence (Q15116 25-288): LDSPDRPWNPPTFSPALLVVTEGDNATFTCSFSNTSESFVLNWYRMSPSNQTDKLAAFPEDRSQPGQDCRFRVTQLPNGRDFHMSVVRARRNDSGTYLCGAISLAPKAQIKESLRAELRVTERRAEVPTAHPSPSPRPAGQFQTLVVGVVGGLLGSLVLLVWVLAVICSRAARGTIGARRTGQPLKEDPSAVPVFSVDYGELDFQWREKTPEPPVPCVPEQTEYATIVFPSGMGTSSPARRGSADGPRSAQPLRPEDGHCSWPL

| Binder | IFN gamma levels pg/mL (MLR) [pg/mL] |
| --- | --- |
| variant PD-L2 IgV H15Q/T47A/Q72H/R76G Fc fusion (Fc fusion) LFTVTVPKELYIIEQGSNVTLECNFDTGSHVNLGAITASLQKVENDASPHRERATLLEEQLPLGKASFHIPHVQVGDEGQYQCIIIYGVAWDYKYLTLKVKA | 1460 |
| variant PD-L2 IgV I13V/H15Q/V31A/N45S/Q82R/V89D Fc fusion (Fc fusion) LFTVTVPKELYIVEQGSNVTLECNFDTGSHANLGAITASLQKVESDTSPHRERATLLEEQLPLGKASFHIPQVQVRDEGQYRCIIIYGDAWDYKYLTLKVKA | 1720 |
| variant PD-L2 IgV I13V/H15Q/T47A/E58G/S67L/Q82R/V89D Fc fusion (Fc fusion) LFTVTVPKELYIVEQGSNVTLECNFDTGSHVNLGAITASLQKVENDASPHRERATLLGEQLPLGKALFHIPQVQVRDEGQYRCIIIYGDAWDYKYLTLKVKA | 836 |
| variant PD-L2 IgV I13V/H15Q/S39I/E44D/S67L Fc fusion (Fc fusion) LFTVTVPKELYIVEQGSNVTLECNFDTGSHVNLGAITAILQKVDNDTSPHRERATLLEEQLPLGKALFHIPQVQVRDEGQYQCIIIYGVAWDYKYLTLKVKA | 1260 |
| variant PD-L2 IgV H15Q/N18D/T47A/Q72H/V73A/R76G/I86T/V89D Fc fusion (Fc fusion) LFTVTVPKELYIIEQGSDVTLECNFDTGSHVNLGAITASLQKVENDASPHRERATLLEEQLPLGKASFHIPHAQVGDEGQYQCIITYGDAWDYKYLTLKVKA | 1070 |
| variant PD-L2 IgV I13V/H15Q/Q82R Fc fusion (Fc fusion) LFTVTVPKELYIVEQGSNVTLECNFDTGSHVNLGAITASLQKVENDTSPHRERATLLEEQLPLGKASFHIPQVQVRDEGQYRCIIIYGVAWDYKYLTLKVKA | 1430 |
| variant PD-L2 IgV H15Q/L33P/T47A/S67L/P71S/V89D Fc fusion (Fc fusion) LFTVTVPKELYIIEQGSNVTLECNFDTGSHVNPGAITASLQKVENDASPHRERATLLEEQLPLGKALFHISQVQVRDEGQYQCIIIYGDAWDYKYLTLKVKA | 1290 |
| variant PD-L2 IgV F2L/H15Q/D46E/T47A/Q72H/R76G/Q82R/V89D Fc fusion (Fc fusion) LLTVTVPKELYIIEQGSNVTLECNFDTGSHVNLGAITASLQKVENEASPHRERATLLEEQLPLGKASFHIPHVQVGDEGQYRCIIIYGDAWDYKYLTLKVKA | 1170 |
| variant PD-L2 IgV H15Q/S67L/Q72H/R76G/V89D Fc fusion (Fc fusion) LFTVTVPKELYIIEQGSNVTLECNFDTGSHVNLGAITASLQKVENDTSPHRERATLLEEQLPLGKALFHIPHVQVGDEGQYQCIIIYGDAWDYKYLTLKVKA | 1060 |
| variant PD-L2 IgV I13V/H15Q/I36V/T47A/S67L/V89D Fc fusion (Fc fusion) LFTVTVPKELYIVEQGSNVTLECNFDTGSHVNLGAVTASLQKVENDASPHRERATLLEEQLPLGKALFHIPQVQVRDEGQYQCIIIYGDAWDYKYLTLKVKA | 1360 |
| variant PD-L2 IgV H15Q/T47A/S67L/R76G/Q82R/V89D Fc fusion (Fc fusion) LFTVTVPKELYIIEQGSNVTLECNFDTGSHVNLGAITASLQKVENDASPHRERATLLEEQLPLGKALFHIPQVQVGDEGQYRCIIIYGDAWDYKYLTLKVKA | 1100 |
| variant PD-L2 IgV N32D/S67L/V89D Fc fusion (Fc fusion) LFTVTVPKELYIIEHGSNVTLECNFDTGSHVDLGAITASLQKVENDTSPHRERATLLEEQLPLGKALFHIPQVQVRDEGQYQCIIIYGDAWDYKYLTLKVKA | 1190 |
| variant PD-L2 IgV H15Q/V31M/S67L/Q82R/V89D Fc fusion (Fc fusion) LFTVTVPKELYIIEQGSNVTLECNFDTGSHMNLGAITASLQKVENDTSPHRERATLLEEQLPLGKALFHIPQVQVRDEGQYRCIIIYGDAWDYKYLTLKVKA | 1210 |
| variant PD-L2 IgV I13V/H15Q/L33F/T47A/Q82R/V89D Fc fusion (Fc fusion) LFTVTVPKELYIVEQGSNVTLECNFDTGSHVNFGAITASLQKVENDASPHRERATLLEEQLPLGKASFHIPQVQVRDEGQYRCIIIYGDAWDYKYLTLKVKA | 1470 |

The next lines start with the values.

| IFN gamma levels pg/mL (MLR) [pg/mL] | Binder |
| --- | --- |
| 1700 | variant PD-L2 IgV I13V/H15Q/T47A/Q82R Fc fusion (Fc fusion) LFTVTVPKELYIVEQGSNVTLECNFDTGSHVNLGAITASLQKVENDASPHRERATLLEEQLPLGKASFHIPQVQVRDEGQYRCIIIYGVAWDYKYLTLKVKA |
| 1530 | variant PD-L2 IgV I12V/I13V/H15Q/T47A/Q82R/V89D Fc fusion (Fc fusion) LFTVTVPKELYVVEQGSNVTLECNFDTGSHVNLGAITASLQKVENDASPHRERATLLEEQLPLGKASFHIPQVQVRDEGQYRCIIIYGDAWDYKYLTLKVKA |
| 1080 | variant PD-L2 IgV I13V/H15Q/T47A/H69L/R76G/V89D Fc fusion (Fc fusion) LFTVTVPKELYIVEQGSNVTLECNFDTGSHVNLGAITASLQKVENDASPHRERATLLEEQLPLGKASFLIPQVQVGDEGQYQCIIIYGDAWDYKYLTLKVKA |
| 1370 | variant PD-L2 IgV I13V/S67L/Q82R/V89D Fc fusion (Fc fusion) LFTVTVPKELYIVEHGSNVTLECNFDTGSHVNLGAITASLQKVENDTSPHRERATLLEEQLPLGKALFHIPQVQVRDEGQYRCIIIYGDAWDYKYLTLKVKA |
| 1190 | variant PD-L2 IgV I13V/H15Q/R76G/D77N/Q82R/V89D Fc fusion (Fc fusion) LFTVTVPKELYIVEQGSNVTLECNFDTGSHVNLGAITASLQKVENDTSPHRERATLLEEQLPLGKASFHIPQVQVGNEGQYRCIIIYGDAWDYKYLTLKVKA |
| 1500 | variant PD-L2 IgV H15Q/L33H/S67L/R76G/Q82R/V89D Fc fusion (Fc fusion) LFTVTVPKELYIIEQGSNVTLECNFDTGSHVNHGAITASLQKVENDTSPHRERATLLEEQLPLGKALFHIPQVQVGDEGQYRCIIIYGDAWDYKYLTLKVKA |
| 1280 | variant PD-L2 IgV E44D/S67L/Q72H/Q82R/V89D Fc fusion (Fc fusion) LFTVTVPKELYIIEHGSNVTLECNFDTGSHVNLGAITASLQKVDNDTSPHRERATLLEEQLPLGKALFHIPHVQVRDEGQYRCIIIYGDAWDYKYLTLKVKA |
| 1600 | variant PD-L2 IgV I13V/H15Q/Q82R/V89D Fc fusion (Fc fusion) LFTVTVPKELYIVEQGSNVTLECNFDTGSHVNLGAITASLQKVENDTSPHRERATLLEEQLPLGKASFHIPQVQVRDEGQYRCIIIYGDAWDYKYLTLKVKA |
| 1230 | variant PD-L2 IgV H15Q/S39I/S67L/V89D Fc fusion (Fc fusion) LFTVTVPKELYIIEQGSNVTLECNFDTGSHVNLGAITAILQKVENDTSPHRERATLLEEQLPLGKALFHIPQVQVRDEGQYQCIIIYGDAWDYKYLTLKVKA |
| 1390 | variant PD-L2 IgV H15Q/E44D/R76G/I85F Fc fusion (Fc fusion) LFTVTVPKELYIIEQGSNVTLECNFDTGSHVNLGAITASLQKVDNDTSPHRERATLLEEQLPLGKASFHIPQVQVGDEGQYQCIFIYGVAWDYKYLTLKVKA |
| 941 | variant PD-L2 IgV H15Q/S39I/E44D/Q72H/V75G/R76G/Q82R/V89D Fc fusion (Fc fusion) LFTVTVPKELYIIEQGSNVTLECNFDTGSHVNLGAITAILQKVDNDTSPHRERATLLEEQLPLGKASFHIPHVQGGDEGQYRCIIIYGDAWDYKYLTLKVKA |
| 934 | variant PD-L2 IgV H15Q/Q72H/Q74R/R76G/I86T Fc fusion (Fc fusion) LFTVTVPKELYIIEQGSNVTLECNFDTGSHVNLGAITASLQKVENDTSPHRERATLLEEQLPLGKASFHIPHVRVGDEGQYQCIITYGVAWDYKYLTLKVKA |
| 1290 | variant PD-L2 IgV H15Q/N32D/S67L/V89D Fc fusion (Fc fusion) LFTVTVPKELYIIEQGSNVTLECNFDTGSHVDLGAITASLQKVENDTSPHRERATLLEEQLPLGKALFHIPQVQVRDEGQYQCIIIYGDAWDYKYLTLKVKA |
| 1270 | variant PD-L2 IgV I13V/H15Q/E44V/T47A/Q82R/V89D Fc fusion (Fc fusion) LFTVTVPKELYIVEQGSNVTLECNFDTGSHVNLGAITASLQKVVNDASPHRERATLLEEQLPLGKASFHIPQVQVRDEGQYRCIIIYGDAWDYKYLTLKVKA |
| 1200 | variant PD-L2 IgV H15Q/T47A/S67L/Q82R/V89D Fc fusion (Fc fusion) LFTVTVPKELYIIEQGSNVTLECNFDTGSHVNLGAITASLQKVENDASPHRERATLLEEQLPLGKALFHIPQVQVRDEGQYRCIIIYGDAWDYKYLTLKVKA |
| 1470 | variant PD-L2 IgV I13V/H15Q/T47A/Q72H/R76G Fc fusion (Fc fusion) LFTVTVPKELYIVEQGSNVTLECNFDTGSHVNLGAITASLQKVENDASPHRERATLLEEQLPLGKASFHIPHVQVGDEGQYQCIIIYGVAWDYKYLTLKVKA |
| 1090 | variant PD-L2 IgV I13V/H15Q/T47A/Q72H/R76G/I86T Fc fusion (Fc fusion) LFTVTVPKELYIVEQGSNVTLECNFDTGSHVNLGAITASLQKVENDASPHRERATLLEEQLPLGKASFHIPHVQVGDEGQYQCIITYGVAWDYKYLTLKVKA |
| 1560 | variant PD-L2 IgV I13V/H15Q/T47A/S67L/Q72H/R76G/Q82R/V89D Fc fusion (Fc fusion) LFTVTVPKELYIVEQGSNVTLECNFDTGSHVNLGAITASLQKVENDASPHRERATLLEEQLPLGKALFHIPHVQVGDEGQYRCIIIYGDAWDYKYLTLKVKA |
| 1120 | variant PD-L2 IgV I13V/H15Q/V89D Fc fusion (Fc fusion) LFTVTVPKELYIVEQGSNVTLECNFDTGSHVNLGAITASLQKVENDTSPHRERATLLEEQLPLGKASFHIPQVQVRDEGQYQCIIIYGDAWDYKYLTLKVKA |
| 1220 | variant PD-L2 IgV I13V/H15Q/Q72H/R76G/I86T Fc fusion (Fc fusion) LFTVTVPKELYIVEQGSNVTLECNFDTGSHVNLGAITASLQKVENDTSPHRERATLLEEQLPLGKASFHIPHVQVGDEGQYQCIITYGVAWDYKYLTLKVKA |
